{
  "source": "paper PMC4559962",
  "about": "“Wss1 metalloprotease partners with Cdc48/Doa1 in processing genotoxic SUMO conjugates” (eLife, 2015)",
  "binders": {"B1": {"name": "HA-Wss1 (recombinant, wild type) (enzyme, S. cerevisiae, UniProt P38838 1-269, looked up)", "chain": "MKTEGIKSPSAKYHDMAGSQRIPHKNPHIQKVAVLQSKPNKEDALNLIKEIAHKVSYLMKENHFKVTNLVEFYPRDQRLLGMNVNHGSKIMLRLRCSTDEFQFLPMECIMGTMLHELTHNLFGPHDKKFYNKLDELIGRQWVIEQRGLYDTFLGNGQRLGGRANLRSNRYPMTGISTNTGIVRKRGKGVKLGSLHPEGISSIDRGNSPRELAAFAAERRYRDDRWCGETKNNKDQIISDNISSSLEVVILDDDDEVLPGDTLIEVIDLT", "notes": "Wss1, yeast metalloprotease (WLM family); Produced with the pRSET-B vector; also called WT; WT-Wss1; source: E. coli ArcticExpress (DE3), soluble, purified on anti-HA beads and eluted with HA peptide"}, "B2": {"name": "MBP-Wss1 (wild type) (enzyme, S. cerevisiae, UniProt P38838 1-269, looked up)", "chain": "MKTEGIKSPSAKYHDMAGSQRIPHKNPHIQKVAVLQSKPNKEDALNLIKEIAHKVSYLMKENHFKVTNLVEFYPRDQRLLGMNVNHGSKIMLRLRCSTDEFQFLPMECIMGTMLHELTHNLFGPHDKKFYNKLDELIGRQWVIEQRGLYDTFLGNGQRLGGRANLRSNRYPMTGISTNTGIVRKRGKGVKLGSLHPEGISSIDRGNSPRELAAFAAERRYRDDRWCGETKNNKDQIISDNISSSLEVVILDDDDEVLPGDTLIEVIDLT", "notes": "Wss1, yeast metalloprotease; Expressed with the pMAL-c2 vector; also called MBP-Wss1 WT; Wss1-beads (CNBr-crosslinked MBP-Wss1 beads); source: E. coli BL21pLysS (DE3), purified on amylose resin, eluted with maltose"}, "B3": {"name": "GST-Cdc48 (full length) (enzyme, S. cerevisiae, UniProt P25694 1-835, looked up)", "chain": "MGEEHKPLLDASGVDPREEDKTATAILRRKKKDNMLLVDDAINDDNSVIAINSNTMDKLELFRGDTVLVKGKKRKDTVLIVLIDDELEDGACRINRVVRNNLRIRLGDLVTIHPCPDIKYATRISVLPIADTIEGITGNLFDVFLKPYFVEAYRPVRKGDHFVVRGGMRQVEFKVVDVEPEEYAVVAQDTIIHWEGEPINREDEENNMNEVGYDDIGGCRKQMAQIREMVELPLRHPQLFKAIGIKPPRGVLMYGPPGTGKTLMARAVANETGAFFFLINGPEVMSKMAGESESNLRKAFEEAEKNAPAIIFIDEIDSIAPKRDKTNGEVERRVVSQLLTLMDGMKARSNVVVIAATNRPNSIDPALRRFGRFDREVDIGIPDATGRLEVLRIHTKNMKLADDVDLEALAAETHGYVGADIASLCSEAAMQQIREKMDLIDLDEDEIDAEVLDSLGVTMDNFRFALGNSNPSALRETVVESVNVTWDDVGGLDEIKEELKETVEYPVLHPDQYTKFGLSPSKGVLFYGPPGTGKTLLAKAVATEVSANFISVKGPELLSMWYGESESNIRDIFDKARAAAPTVVFLDELDSIAKARGGSLGDAGGASDRVVNQLLTEMDGMNAKKNVFVIGATNRPDQIDPAILRPGRLDQLIYVPLPDENARLSILNAQLRKTPLEPGLELTAIAKATQGFSGADLLYIVQRAAKYAIKDSIEAHRQHEAEKEVKVEGEDVEMTDEGAKAEQEPEVDPVPYITKEHFAEAMKTAKRSVSDAELRRYEAYSQQMKASRGQFSNFNFNDAPLGTTATDNANSNNSAPSGAGAAFGSNAEEDDDLYS", "notes": "Cdc48, AAA ATPase; source: expressed in bacteria, purified"}, "B4": {"name": "his6-Flag (HF)-Doa1 (natural protein, S. cerevisiae, UniProt P36037 1-715, looked up)", "chain": "MGYQLSATLKGHDQDVRDVVAVDDSKVASVSRDGTVRLWSKDDQWLGTVVYTGQGFLNSVCYDSEKELLLFGGKDTMINGVPLFATSGEDPLYTLIGHQGNVCSLSFQDGVVISGSWDKTAKVWKEGSLVYNLQAHNASVWDAKVVSFSENKFLTASADKTIKLWQNDKVIKTFSGIHNDVVRHLAVVDDGHFISCSNDGLIKLVDMHTGDVLRTYEGHESFVYCIKLLPNGDIVSCGEDRTVRIWSKENGSLKQVITLPAISIWSVDCMSNGDIIVGSSDNLVRIFSQEKSRWASEDEINELSTQVEKSTISSKTIEFDESKLSPYEILQSPGRKEGQIVVVKSPQGTIEAHQFSNSSWKKVGDVVGAGATGNDKKIEFEGKTYDYVFDVDIEDGKPPLKLPINVSDNPYTAADNFLARYELPMSYRDQVVQFILKNTNGISLDQPNDNASSSAVSPSKTSVMKVLPVKQYLIMENYNPDTIFNGIVKINSNEKTFDDEILAQIGGALHDIDESWELLLSFANTIRSNWEIKTPAYDIVRLIVKKLPYSSDIKDYIEEGLGNKNITLTMLTVRILVNCFNNENWGVKLLESNQVYKSIFETIDTEFSQASAKQSQNLAIAVSTLIFNYSALVTKGNSDLELLPIVADAINTKYGPLEEYQECEEAAYRLTVAYGNLATVEPTLRQFANSVTWLANIKRSYGNVPRFKDIFDDLS", "notes": "Doa1, Cdc48 cofactor"}},
  "settings_in_all_cases": "both partners purified",
  "key": {"[1]": {"biological_target": "B4", "assay": "pull-down; purified HA-Wss1 (full length or truncated) on anti-HA beads with purified His6-Cdc48, GST-Cdc48 or HF-Doa1 (full length or truncated); western blot"}, "[2]": {"biological_target": "B3", "assay": "pull-down; Cdc48 complexes preformed from purified GST-Cdc48 with a double molar excess of adaptors; MBP-Wss1 added in stoichiometric amount; glutathione beads; PAGE with Coomassie staining, ImageJ"}, "[3]": {"biological_target": "B4", "assay": "pull-down; purified MBP-Wss1 proteins on amylose beads with purified Cdc48 or adaptor proteins; PAGE with Coomassie staining, western blot with α-His6, ImageJ"}, "[4]": {"biological_target": "B2", "assay": "pull-down; purified MBP-Wss1 proteins on amylose beads with purified Cdc48 or adaptor proteins; PAGE with Coomassie staining, western blot with α-His6, ImageJ"}},
  "data": [
    {"binder": "B1", "values": [
      {"measurement": "binding result", "setting": "[1]", "value": "binds"}
    ]},
    {"binder": "B2", "values": [
      {"measurement": "stoichiometry N", "setting": "[2]", "value": 1},
      {"measurement": "binding result", "setting": "[3]", "value": "binds"}
    ]},
    {"binder": "B3", "values": [
      {"measurement": "stoichiometry N", "setting": "[4]", "value": 1}
    ]},
    {"binder": "B4", "values": [
      {"measurement": "stoichiometry N", "setting": "[2]", "value": 1}
    ]}
  ]
}
